# Results reported in publication PMC9482650, “Quantitative fragmentomics allow affinity mapping of interactomes” (Nature Communications, 2022).
# T1: SHROOM4, Q9ULL8
# T1 sequence (Q9ULL8 5-102, limits assumed, looked up): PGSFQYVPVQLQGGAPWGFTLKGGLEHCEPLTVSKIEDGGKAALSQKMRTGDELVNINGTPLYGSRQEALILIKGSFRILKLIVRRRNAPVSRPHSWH
# T2: MPDZ_2, O75970
# T2 sequence (O75970 252-347, limits assumed, looked up): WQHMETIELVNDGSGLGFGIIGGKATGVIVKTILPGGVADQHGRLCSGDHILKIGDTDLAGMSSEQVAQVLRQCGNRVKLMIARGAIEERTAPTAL
# T3: PDZD2_4, O15018
# T3 sequence (O15018 723-823, limits assumed, looked up): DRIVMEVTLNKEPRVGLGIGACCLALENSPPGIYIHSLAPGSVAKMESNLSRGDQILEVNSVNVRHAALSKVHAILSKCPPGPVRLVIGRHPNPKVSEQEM
# T4: CNKSR1, Q969H4
# T4 sequence (Q969H4 191-295, limits assumed, looked up): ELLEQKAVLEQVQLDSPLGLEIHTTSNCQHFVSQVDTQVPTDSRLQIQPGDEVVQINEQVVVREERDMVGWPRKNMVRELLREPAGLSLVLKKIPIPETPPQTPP
# T5: PDZD8, Q8NEN9
# T5 sequence (Q8NEN9 361-459, limits assumed, looked up): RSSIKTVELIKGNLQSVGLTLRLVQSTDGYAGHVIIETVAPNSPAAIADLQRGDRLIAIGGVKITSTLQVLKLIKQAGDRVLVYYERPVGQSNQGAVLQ
# T6: APBA3_2, O96018
# T6 sequence (O96018 480-570, limits assumed, looked up): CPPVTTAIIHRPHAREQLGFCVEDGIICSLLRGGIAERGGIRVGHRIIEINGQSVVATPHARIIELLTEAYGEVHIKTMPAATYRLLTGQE
# T7: PDZD2_3, O15018
# T7 sequence (O15018 581-682, limits assumed, looked up): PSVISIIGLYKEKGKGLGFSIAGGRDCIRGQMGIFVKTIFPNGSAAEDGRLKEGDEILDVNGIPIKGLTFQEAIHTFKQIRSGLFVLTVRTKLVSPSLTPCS
# T8: PDZRN3_2, Q9UPQ7
# T8 sequence (Q9UPQ7 414-513, limits assumed, looked up): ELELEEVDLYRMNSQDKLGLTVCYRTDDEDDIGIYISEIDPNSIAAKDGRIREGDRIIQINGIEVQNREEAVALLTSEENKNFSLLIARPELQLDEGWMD
# T9: SIPA1L3, O60292
# T9 sequence (O60292 961-1052, limits assumed, looked up): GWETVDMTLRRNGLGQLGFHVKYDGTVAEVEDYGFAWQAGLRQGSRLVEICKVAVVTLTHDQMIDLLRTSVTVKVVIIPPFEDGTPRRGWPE
# T10: PREX2_2, Q70Z35
# T10 sequence (Q70Z35 672-764, limits assumed, looked up): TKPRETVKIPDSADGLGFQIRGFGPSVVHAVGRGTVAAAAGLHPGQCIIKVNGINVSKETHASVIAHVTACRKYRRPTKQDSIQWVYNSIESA
# T11: GRIP1_1, Q9Y3R0
# T11 sequence (Q9Y3R0 48-146, limits assumed, looked up): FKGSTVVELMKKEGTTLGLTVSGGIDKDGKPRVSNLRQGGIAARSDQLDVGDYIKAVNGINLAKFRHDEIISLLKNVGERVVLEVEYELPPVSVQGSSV
# T12: SYNPO2L, Q9H987
# T12 sequence (Q9H987 1-98, limits assumed, looked up): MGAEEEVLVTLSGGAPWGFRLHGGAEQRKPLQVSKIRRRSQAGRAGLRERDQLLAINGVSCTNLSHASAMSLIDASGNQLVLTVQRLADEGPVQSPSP
# T13: NHERF1_1, O14745
# T13 sequence (O14745 9-104, limits assumed, looked up): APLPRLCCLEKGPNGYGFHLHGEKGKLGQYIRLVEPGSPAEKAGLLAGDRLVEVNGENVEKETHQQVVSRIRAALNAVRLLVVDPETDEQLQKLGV
# T14: MPP1, Q00013
# T14 sequence (Q00013 66-162, limits assumed, looked up): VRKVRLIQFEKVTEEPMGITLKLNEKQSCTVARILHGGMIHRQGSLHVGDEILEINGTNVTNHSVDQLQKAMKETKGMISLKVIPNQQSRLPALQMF
# T15: GIPC1, O14908
# T15 sequence (O14908 128-223, limits assumed, looked up): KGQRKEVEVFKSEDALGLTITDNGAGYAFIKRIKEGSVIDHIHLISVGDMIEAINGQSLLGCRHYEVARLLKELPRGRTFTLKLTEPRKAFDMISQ
# Biological target: T1, SHROOM4, Q9ULL8
# Test: holdup assay
# Set-up: key: below the threshold = too weak to quantify, mostly under pKd 3.1 to 4
# Details: plain residues with an end cap or a label only (N-terminal biotin on a linker: ttds)
row,Binder,pKd
1,"SSLQSLETSV [ATP2B4, P23634]",4.68
2,"RLQRRRETQV [HPV18-E6, P06463]",below the threshold

# Biological target: T2, MPDZ_2, O75970
# Test: holdup assay
# Set-up: key: below the threshold = too weak to quantify, mostly under pKd 3.1 to 4
# Details: plain residues with an end cap or a label only (N-terminal biotin on a linker: ttds)
row,Binder,pKd
1,"SSLQSLETSV [ATP2B4, P23634]",below the threshold
2,"RLQRRRETQV [HPV18-E6, P06463]",below the threshold

# Biological target: T3, PDZD2_4, O15018
# Test: holdup assay
# Set-up: key: below the threshold = too weak to quantify, mostly under pKd 3.1 to 4
# Details: plain residues with an end cap or a label only (N-terminal biotin on a linker: ttds)
row,Binder,pKd
1,"SSLQSLETSV [ATP2B4, P23634]",below the threshold
2,"RLQRRRETQV [HPV18-E6, P06463]",below the threshold

# Biological target: T4, CNKSR1, Q969H4
# Test: holdup assay
# Set-up: key: below the threshold = too weak to quantify, mostly under pKd 3.1 to 4
# Details: plain residues with an end cap or a label only (N-terminal biotin on a linker: ttds)
row,Binder,pKd
1,"SSLQSLETSV [ATP2B4, P23634]",below the threshold
2,"RLQRRRETQV [HPV18-E6, P06463]",below the threshold

# Biological target: T5, PDZD8, Q8NEN9
# Test: holdup assay
# Set-up: key: below the threshold = too weak to quantify, mostly under pKd 3.1 to 4
# Details: plain residues with an end cap or a label only (N-terminal biotin on a linker: ttds)
row,Binder,pKd
1,"SSLQSLETSV [ATP2B4, P23634]",below the threshold
2,"RLQRRRETQV [HPV18-E6, P06463]",below the threshold

# Biological target: T6, APBA3_2, O96018
# Test: holdup assay
# Set-up: key: below the threshold = too weak to quantify, mostly under pKd 3.1 to 4
# Details: plain residues with an end cap or a label only (N-terminal biotin on a linker: ttds)
row,Binder,pKd
1,"SSLQSLETSV [ATP2B4, P23634]",4.21
2,"RLQRRRETQV [HPV18-E6, P06463]",below the threshold

# Biological target: PARD3_1, Q8TEW0
# Sequence (Q8TEW0 264-372): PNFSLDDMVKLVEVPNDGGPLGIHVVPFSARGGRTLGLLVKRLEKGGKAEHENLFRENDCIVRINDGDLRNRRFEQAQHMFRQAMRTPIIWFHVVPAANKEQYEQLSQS
# Test: holdup assay
# Set-up: key: below the threshold = too weak to quantify, mostly under pKd 3.1 to 4
# Details: plain residues with an end cap or a label only (N-terminal biotin on a linker: ttds)
row,Binder,pKd
1,"SSLQSLETSV [ATP2B4, P23634]",below the threshold
2,"RLQRRRETQV [HPV18-E6, P06463]",below the threshold

# Biological target: PREX1_1, Q8TCU6
# Sequence (Q8TCU6 608-718): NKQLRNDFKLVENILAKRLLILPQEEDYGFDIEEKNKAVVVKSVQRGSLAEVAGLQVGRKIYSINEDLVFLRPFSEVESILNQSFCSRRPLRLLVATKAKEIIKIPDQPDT
# Test: holdup assay
# Set-up: key: below the threshold = too weak to quantify, mostly under pKd 3.1 to 4
# Details: plain residues with an end cap or a label only (N-terminal biotin on a linker: ttds)
row,Binder,pKd
1,"SSLQSLETSV [ATP2B4, P23634]",below the threshold
2,"RLQRRRETQV [HPV18-E6, P06463]",below the threshold

# Biological target: LMO7, Q8WWI1
# Sequence (Q8WWI1 1037-1138): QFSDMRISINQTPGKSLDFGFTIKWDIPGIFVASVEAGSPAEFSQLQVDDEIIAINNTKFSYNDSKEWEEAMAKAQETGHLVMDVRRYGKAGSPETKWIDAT
# Test: holdup assay
# Set-up: key: below the threshold = too weak to quantify, mostly under pKd 3.1 to 4
# Details: plain residues with an end cap or a label only (N-terminal biotin on a linker: ttds)
row,Binder,pKd
1,"SSLQSLETSV [ATP2B4, P23634]",4.5
2,"RLQRRRETQV [HPV18-E6, P06463]",below the threshold

# Biological target: PDZRN4_2, Q6ZMN7
# Sequence (Q6ZMN7 389-498): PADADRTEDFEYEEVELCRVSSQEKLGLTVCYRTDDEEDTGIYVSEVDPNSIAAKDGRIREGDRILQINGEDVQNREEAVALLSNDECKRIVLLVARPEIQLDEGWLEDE
# Test: holdup assay
# Set-up: key: below the threshold = too weak to quantify, mostly under pKd 3.1 to 4
# Details: plain residues with an end cap or a label only (N-terminal biotin on a linker: ttds)
row,Binder,pKd
1,"SSLQSLETSV [ATP2B4, P23634]",4.24
2,"RLQRRRETQV [HPV18-E6, P06463]",below the threshold

# Biological target: T7, PDZD2_3, O15018
# Test: holdup assay
# Set-up: key: below the threshold = too weak to quantify, mostly under pKd 3.1 to 4
# Details: plain residues with an end cap or a label only (N-terminal biotin on a linker: ttds)
row,Binder,pKd
1,"SSLQSLETSV [ATP2B4, P23634]",below the threshold
2,"RLQRRRETQV [HPV18-E6, P06463]",below the threshold

# Biological target: T8, PDZRN3_2, Q9UPQ7
# Test: holdup assay
# Set-up: key: below the threshold = too weak to quantify, mostly under pKd 3.1 to 4
# Details: plain residues with an end cap or a label only (N-terminal biotin on a linker: ttds)
row,Binder,pKd
1,"SSLQSLETSV [ATP2B4, P23634]",below the threshold

# Biological target: GIPC3, Q8TF64
# Sequence (Q8TF64 107-202): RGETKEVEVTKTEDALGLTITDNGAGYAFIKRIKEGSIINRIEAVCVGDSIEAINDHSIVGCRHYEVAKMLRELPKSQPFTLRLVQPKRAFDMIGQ
# Test: holdup assay
# Set-up: key: below the threshold = too weak to quantify, mostly under pKd 3.1 to 4
# Details: plain residues with an end cap or a label only (N-terminal biotin on a linker: ttds)
row,Binder,pKd
1,"SSLQSLETSV [ATP2B4, P23634]",below the threshold
2,"RLQRRRETQV [HPV18-E6, P06463]",below the threshold

# Biological target: T9, SIPA1L3, O60292
# Test: holdup assay
# Set-up: key: below the threshold = too weak to quantify, mostly under pKd 3.1 to 4
# Details: plain residues with an end cap or a label only (N-terminal biotin on a linker: ttds)
row,Binder,pKd
1,"SSLQSLETSV [ATP2B4, P23634]",below the threshold
2,"RLQRRRETQV [HPV18-E6, P06463]",below the threshold

# Biological target: T10, PREX2_2, Q70Z35
# Test: holdup assay
# Set-up: key: below the threshold = too weak to quantify, mostly under pKd 3.1 to 4
# Details: plain residues with an end cap or a label only (N-terminal biotin on a linker: ttds)
row,Binder,pKd
1,"SSLQSLETSV [ATP2B4, P23634]",below the threshold
2,"RLQRRRETQV [HPV18-E6, P06463]",4

# Biological target: T11, GRIP1_1, Q9Y3R0
# Test: holdup assay
# Set-up: key: below the threshold = too weak to quantify, mostly under pKd 3.1 to 4
# Details: plain residues with an end cap or a label only (N-terminal biotin on a linker: ttds)
row,Binder,pKd
1,"SSLQSLETSV [ATP2B4, P23634]",below the threshold
2,"RLQRRRETQV [HPV18-E6, P06463]",below the threshold

# Biological target: T12, SYNPO2L, Q9H987
# Test: holdup assay
# Set-up: key: below the threshold = too weak to quantify, mostly under pKd 3.1 to 4
# Details: plain residues with an end cap or a label only (N-terminal biotin on a linker: ttds)
row,Binder,pKd
1,"SSLQSLETSV [ATP2B4, P23634]",below the threshold
2,"RLQRRRETQV [HPV18-E6, P06463]",below the threshold

# Biological target: T13, NHERF1_1, O14745
# Test: holdup assay
# Set-up: key: below the threshold = too weak to quantify, mostly under pKd 3.1 to 4
# Details: plain residues with an end cap or a label only (N-terminal biotin on a linker: ttds)
row,Binder,pKd
1,"SSLQSLETSV [ATP2B4, P23634]",below the threshold
2,"RLQRRRETQV [HPV18-E6, P06463]",below the threshold

# Biological target: DVL2, O14641
# Sequence (O14641 260-359): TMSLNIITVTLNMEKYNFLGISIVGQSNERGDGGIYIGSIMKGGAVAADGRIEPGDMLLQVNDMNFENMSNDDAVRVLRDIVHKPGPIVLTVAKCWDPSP
# Test: holdup assay
# Set-up: key: below the threshold = too weak to quantify, mostly under pKd 3.1 to 4
# Details: plain residues with an end cap or a label only (N-terminal biotin on a linker: ttds)
row,Binder,pKd
1,"RLQRRRETQV [HPV18-E6, P06463]",below the threshold

# Biological target: T14, MPP1, Q00013
# Test: holdup assay
# Set-up: key: below the threshold = too weak to quantify, mostly under pKd 3.1 to 4
# Details: plain residues with an end cap or a label only (N-terminal biotin on a linker: ttds)
row,Binder,pKd
1,"SSLQSLETSV [ATP2B4, P23634]",4.23
2,"RLQRRRETQV [HPV18-E6, P06463]",below the threshold

# Biological target: T15, GIPC1, O14908
# Test: holdup assay
# Set-up: key: below the threshold = too weak to quantify, mostly under pKd 3.1 to 4
# Details: plain residues with an end cap or a label only (N-terminal biotin on a linker: ttds)
row,Binder,pKd
1,"RLQRRRETQV [HPV18-E6, P06463]",4.44
